According to US20180009877A1 (ACADEMIA SINICA, published 2018):

B1: M64 (antibody)
chain: MAELDIQMNQSHKFMSTSVGDRVSITCKASQDVSTAVAWYQQKPGQSPKLLIYWASTRHTGVPGRFTGSGSGADYTLTISSVQAEDLALYYCQQHYSTPYTFGGGTKLEIKSSGGGGSGGGGGGSSRSSLEVQLQQSGAELVKPGASVKLSCTASGFNIKNTYMHWVKQRPEQGLEWIGRIDPANGNTKYDPKLQGKATITADTSSNTAYLHLSSLTSEDTAVYYCVPYYRGAMDYWGQGTSVTVSSESQSFPNVTSAAAGAPVPYPDPLEPRAA
B2: M63 (antibody)
chain: MAELDAVVTQESALTTSPGETVTLTCRSSTGTVTTSNYANWVQEKPDHLFTGLIGGTKNRAPGVPARFSGSLIGDKAALTITGAQTEDEAIYFCALWYSNHWVFGGGTKLTVLGSSGGGGSGGGGGGSSRSSLEVQLQQSGPELVRPGDSVKISCKASGYTFSDYAVHWVKRSHGKSLEWIGVISIYYDNINYNQNFKGKATMTVDKSSSTAYLELARLTSEDSAIYYCARRGFDYWGPGTTLTVSSAKTTAPSVTSAAA
B3: M32 (antibody)
chain: MAELGIELTQSQKFMSTSVGDRVSITCKASQNVGTAVAWYQQKPGQSPKLLIYSASNRYTGVPDRFTGSGSGTDFTLTISNMQSEDLADYFCQQYSSYPLAFGGGTKLEIKSSGGGGSGGGGGGSSRSSLEVQLVESGAELVRPGALVKLSCKASGFNIKDYFMYWVKQRPEQGLEWVGWIDPENGNTIYDPKFQGKASITADTSSNTAYLQLSSLTSEDTAVYYCTRGYYGSRVLAMDYWGQGTSVTVSSAKTTPPSVTSAAA
notes: also called antibody M32
B4: M41 (antibody)
chain: MAELDIQMTQTTSSLSASLGDRVTISCRTSQDISNYLNWYQQKPNGTIKLLIYYTSGLYSGVPSRFSGSGSGADYSLTISNVEQEDIATYFCQQVNTLPYTFGGGTKLELKSSGGGGSGGGGGGSSRSSFEVQLQQSGAELVKPGASVKMSCKAFGYTFTTYPIEWMKQNHGKSLEWIGNFHPYNDYTNYNEKFKGKAKLTVEKSSTTVYLELSRLTSDDSAVYYCARRHDGYYGAMDYWGQGTSVTVSSAKTTAPSVTSAAAGAPVPYPDPLEPRAA
notes: also called antibody M41
B5: M62 (antibody)
chain: MAELDIQMIQSQKFMSTSVGDRVSVTCKASQNVGTNVAWYQQKPGQSPKALIHSASYRYSGVPDRFTGSGSGTDFTLTISNVQSEDLAEYFCQQYNSYPLTFGAGTKLEIKSSGGGGSGGGGGGSSRSSLEVQLQQSGTELARPGASVKLSCKASGYTFIDYYITWVKQRTGQGLEWIGEIYPGGGNPYYNDNFKGKASLTADKSSNTVYMQLSSLTSEDSAVYFCARSYKYDVSVYWGQGTLVTVSAAKTTPPSVTSAAAGAPVPYPDPLEPRAA
notes: also called antibody M62
B6: H32 (antibody)
chain: DIQMTQSPSSLSASVGDRVTITCKASQNVGTAVAWYQQKPGKAPKLLIYSASNRYTGVPSRFSGSGSGTDFTLTISSLQPEDFATYYCQQYSSYPLAFGQGTKVEIKRGGGGSIEGRSGGGGSEVQLVESGGGLVQPGGSLRLSCKASGFNIKDYFMYWVRQAPGKGLEWVGWIDPENGNTIYDPKFQGRFTISADTSKNTAYLQMNSLRAEDTAVYYCTRGYYGSRVLAMDYWGQGTLVTVSSASAAA
notes: also called antibody H32
B7: M61 (antibody)
chain: MAELDIKITQSPASLSASVGETVTITCRASENIYSYLAWYQQKQGKSPQLLVYNAKTLAEGVPSRFSGSGSGTQFSLKINSLQPEDFGSYYCQHHYGTPYTFGGGTKLELKSSGGGGSGGGGGGSSRSSLEVQLQQSGAELVKPGASVKMSCKAFGYTFTTYPIEWMKQNHGKSLEWIGNFHPYNDDTKYNEKFKGKAKLTVEKSSSTVYLELSRLTSDDSAVYYCARRNDGYYGAMDYWGQGTSVTVSSAKTTAPSVTSAAAGAPVPYPDPLEPRAA

What was measured:
polypeptide HER2/ECD [1] = target: T1, polypeptide HER2/ECD (human, UniProt P04626 23-646); assay: ELISA, IgG on immobilized HER2/ECD
Method: The EC₅₀ of antibody was determined by titrating the antibody on immobilized HER2/ECD with ELISA. Briefly, NUNC 96-well Maxisorb immunoplates were coated with HER2/ECD peptides (0.2 μg per well) in PBS buffer (pH 7.4) via overnight incubation at 4° C., the plates were then blocked with 5% skim milk in PBST [0.05% (v/v) Tween 20] for 1 h. In the meantime, twofold serial dilutions of the antibody in PBST with 5% milk were performed and 11 different concentrations of the antibody were generated. After blocking, 100 μL diluted antibody samples were added to each well, and incubated for 1 h under gentle shaking. The plate was washed 6 times with 300 μL PBST and then added with 100 μL 1:2000-diluted horse-radish peroxidase/anti-human IgG antibody conjugate in PBST with 5% milk for 1 h incubation. The plates were washed 6 times with PBST buffer and twice with PBS, developed for 3 min with 3,3′,5,5′-tetramethyl-benzidine peroxidase substrate (Kirkegaard & Perry Laboratories), quenched with 1.0 M HCl and read spectrophotometrically at 450 nm.

polypeptide HER2/ECD [2] = target: T1, polypeptide HER2/ECD; assay: SPR (BIAcore), HER2/ECD immobilized, IgG in flow
Method: BIAcore T200 (GE Healthcare) instrument was used to determine the binding affinities and kinetic parameters for interactions between antibody and antigen HER2/ECD. HER2/ECD in 10 mM acetate buffer (pH 5.0) was immobilized on a CM5 sensor chip to a response unit (RU) of 1000 with an amine coupling kit. Association (kₒₙ) and dissociation (koff) constants of the interactions between IgGs and HER2/ECD were measured in PBST running buffer (0.05% Tween 20) with a flow rate of 30 μL/min. […] Binding kinetics was determined by global fitting to 1:1 binding model using the Biaevaluation software (GE Healthcare).

Binder | EC50 (polypeptide HER2/ECD [1]) | Kd (polypeptide HER2/ECD [2]) | koff (polypeptide HER2/ECD [2]) | kon (polypeptide HER2/ECD [2])
B1 | 3.1 ng/mL | 0.195 nM | 0.000337 s⁻¹ | 1.74e+06 M⁻¹ s⁻¹
B2 | 2.4 ng/mL | – | 7.34e-05 s⁻¹ | –
B3 | 3.1 ng/mL | 0.243 nM | 7.15e-05 s⁻¹ | 294000 M⁻¹ s⁻¹
B4 | 3.4 ng/mL | 0.0519 nM | 3.48e-05 s⁻¹ | 671000 M⁻¹ s⁻¹
B5 | 2 ng/mL | 0.0228 nM | 1.8e-05 s⁻¹ | 788000 M⁻¹ s⁻¹
B6 | 3.2 ng/mL | 0.242 nM | 3.85e-05 s⁻¹ | 159000 M⁻¹ s⁻¹
B7 | 3.5 ng/mL | 0.591 nM | 0.0024 s⁻¹ | 4.06e+06 M⁻¹ s⁻¹
